Data: patent publication US20100240774A1, “USE OF HYDROPHOBIN POLYPEPTIDES AS PENETRATION ENHANCERS” (BASF SE, priority 2007, published 2010)

B1: hydrophobin B: fusion hydrophobin, SEQ ID NO: 26 from WO2007/14897; SEQ ID NO: 36 herein (yaad40-Xa-dewA-his) (protein)
chain: MAQTGTERVKRGMAEMQKGGVIMDVINAEQAKIAEEAGAVIEGRMRFIVSLLAFTAAATATALPASAAKNAKLATSAAFAKQAEGTTCNVGSIACCNSPAETNNDSLLSGLLGAGLLNGLSGNTGSACAKASLIDQLGLLALVDHTEEGPVCKNIVACCPEGTTNCVAVDNAGAGTKAEGSHHHHHH
modifications: fusion protein yaad40-Xa-dewA-his
B2: hydrophobin A: fusion hydrophobin, SEQ ID NO: 20 from WO2007/14897 and herein (yaad-Xa-dewA-his) (protein)
chain: MAQTGTERVKRGMAEMQKGGVIMDVINAEQAKIAEEAGAVAVMALERVPADIRAAGGVARMADPTIVEEVMNAVSIPVMAKARIGHIVEARVLEAMGVDYIDESEVLTPADEEFHLNKNEYTVPFVCGCRDLGEATRRIAEGASMLRTKGEPGTGNIVEAVRHMRKVNAQVRKVVAMSEDELMTEAKNLGAPYELLLQIKKDGKLPVVNFAAGGVATPADAALMMQLGADGVFVGSGIFKSDNPAKFAKAIVEATTHFTDYKLIAELSKELGTAMKGIEISNLLPEQRMQERGWRSIEGRMRFIVSLLAFTAAATATALPASAAKNAKLATSAAFAKQAEGTTCNVGSIACCNSPAETNNDSLLSGLLGAGLLNGLSGNTGSACAKASLIDQLGLLALVDHTEEGPVCKNIVACCPEGTTNCVAVDNAGAGTKAEGSHHHHHH
modifications: basf-yaad-Xa-dewA-his fusion of Bacillus subtilis yaaD and N-terminal factor Xa proteinase cleavage site and Aspergillus nidulans hydrophobin dewA and his6

Columns and labels:
[1] = system: NHDF (normal human dermal fibroblast) cultures; assay: antioxidative capacity (DCFH fluorescence after H2O2 stress) in NHDF cultures; assay type: cell-based; settings: 24 h treatment, H2O2-induced radicals, protein concentration 0.001%, three independent runs, effect seen in two of three runs
Excerpt: The reference substances used were vitamin E (alpha-tocopheryl acetate), vitamin C (Mg ascorbyl phosphate) and quercetin. The test cells used were normal dermal connective tissue cells (fibroblasts) since these produced good signal strengths in the evaluation method. To ascertain the antioxidative properties of the solutions, the NHDF (normal human dermal fibroblast) cultures were sown out on 48-well culture vessels and cultivated until the culture surface was completely covered. The investigations were then carried out with these random cultures. Firstly, the cultures were treated for 24 h with the test solutions. […] The plates containing the cells were inserted into a fluorescence reader and the measurement was started with an introductory phase without stress. […] Low fluorescence thus indicates high antioxidative capacity. […] The y axis here represents the oxidative stress in the cells as the fluorescence which is emitted when free radicals react with the intracellular dye DCFH. […] All fluorescence values were corrected with the protein contents of the cultures following conclusion of the measurements (ascertained with Coomassie stain). This compensates for fluctuations in the cell number, which would also cause fluctuations in the fluorescence (on account of the varying amount of dye). […]

[2] = skin penetration of lactic acid: pH of pigskin after tape stripping; assay type: in vitro ADME, pig; settings: for pH of the skin in the lower skin layers (after stripping) versus control without hydrophobin: hydrophobin coating and subsequent lactic acid treatment; for pH 1x stripping / pH 2x stripping / pH 3x stripping / pH without stripping: pigskin pretreated with 100 μl 0.1% hydrophobin 1.5 hours, then 15% strength lactic acid 10 minutes; for pH 1x stripping: after 1 Corneofix strip; for pH 2x stripping: after 2 Corneofix strips; for pH 3x stripping: after 3 Corneofix strips; for pH without stripping: mean of triple measurements
Procedure: • 1. Preparation of a 1% strength solution of hydrophobin A and B in Millipore water Dissolution of the hydrophobin by vigorous stirring on a magnetic stirrer at 900 rpm for 45 minutes. • 2. Preparation of 1 ml of a ready-to-use hydrophobin solution: • 800 μl Millipore water +100 μl 10-fold buffer (500 mM Tris, 10 mM CaCl2, pH 8) +100 μl hydrophobin solution
This corresponds to a 0.1% strength hydrophobin solution in 50 mM Tris 1 mM CaCl2 and pH 8
• 1. Frozen and dehaired pigskin (not blanched) was defrosted at room temperature. Marking of the application fields measuring ca. 2 cm×2 cm Application of the following solutions (stripping): • control (without solution)
• 2. Incubation of the solutions for 1.5 hours at RT
In order to remove any buffer salts present, all of the application fields were rinsed with 2×500 μl of Millipore water and dabbed with a paper towel. • 3. Application of in each case 100 μl of 15% strength lactic acid to all application fields
Incubation of the solutions for 10 minutes at room temperature
Removal of the excess lactic acid using a paper towel
Measurement of the pH of the pigskin on the respective application fields. Triple measurements were carried out and the mean was used. The water present after a pH measurement was dabbed off using a paper towel. A skin pH meter PH 905 from Courage & Khazaka was used.
Removal of the uppermost loose cell layer using a Corneofix adhesive strip from Courage & Khazaka
Renewed measurement of the pH
Overall, a Corneofix adhesive strip was used 3 times and the pH measured thereafter.

| Molecule | oxidative stress / antioxidative potential (DCFH fluorescence) [1] | pH of the skin in the lower skin layers (after stripping) versus control without hydrophobin [2] | pH 1x stripping [2] | pH 2x stripping [2] | pH 3x stripping [2] | pH without stripping [2] |
| --- | --- | --- | --- | --- | --- | --- |
| CC(=O)Oc1c(C)c(C)c2c(c1C)CCC(C)(CCC[C@H](C)CCC[C@H](C)CCCC(C)C)O2 (stereo partly drawn) [Tocopheryl acetate, alpha-tocopheryl acetate] | no antioxidative potential | – | – | – | – | – |
| B1 | – | lower pH | 2.89 | 3.08 | 3.26 | 2.64 |
| B2 | – | lower pH | 3.08 | 3.39 | 3.63 | 2.62 |
